Data set [1] has as its target PGD2_new medial C420S (Arabidopsis thaliana) (UniProt Q9FWA3).
Data set [2] deals with the molecule itself. Nature of the data set: semi-native SDS-PAGE with anti-His immunoblot; His-PGD2 variants from cleared E. coli BL21minus extracts, sample buffer without SDS and DTT and without boiling; monomer to dimer. In general terms: In western blotting, separated proteins are transferred to a membrane and probed.

Positions count from the first letter of the chain named. Numbers in names are those of the source.

Usually stoichiometry N stands for a count of units in the complex or per binding partner.

B1: PGD2_new medial C420S (enzyme)
chain: MAVQPTRIGLAGLAVMGQNLALNIAEKGFPISVYNRTTSKVDETVERAKKEGNLPLYGFHDPESFVKSIQKPRVIIMLVKAGSPVDQTIKTLSAYLEKGDCIVDGGNEWYENTERREKAVAENGFLYLGMGVSGGEEGARNGPSMMPGGSYEAYKNIEDIVLKVAAQVRDSGPCVTYIGKGGSGNFVKMVHNGIEYGDMQLIAEAYDVLKSVGKLSNEELHSVFSDWNKGELESFLVEITADIFGIKDDKGDGHLVDKVLDKTGMKGTGKWTVQQAAELSVPAPTIESSLDARFLSGLKDERVQAAKVFKAGGFGDILTDQKVDKKQLVDDVRKALYASKICSYAQGMNLIRAKSIEKGWGLKLGELARIWKGGCIIRAIFLDRIKQAYDRNAELANLLVDPEFAKEIIERQSAWRRVVSLAINSGISTPGMSASLAYFDSYRRERLPANLVQAQRDYFGAHTYERTDVEGSFHTEWFKIARQSKI
In data set [1], B1 yielded a 6PGDH activity upon GFP-based pull-down from protoplasts, relative to the corresponding wild-type version (% of the corresponding wild-type version) of 80.

B2: His-PGD2 wild type (full-length protein) (enzyme, Arabidopsis thaliana, UniProt Q9FWA3 1-486, looked up)
chain: B1 chain with S420C
notes: Arabidopsis thaliana PGD2 (At3g02360), full-length protein, cDNA cloned in pET16b; Cloning analogous to Hölscher et al. (2016); Found as monomer and dimer on the semi-native gel; source: E. coli BL21minus (G6PDH-deficient), in cleared extract
Turning to B2, in data set [2], the “stoichiometry N” value is 2.

These data come from article PMC11103113, “Evidence for dual targeting control of Arabidopsis 6-phosphogluconate dehydrogenase isoforms by N-terminal phosphorylation” (Journal of Experimental Botany, 2024).
